{"source": "the PETadex activity labels", "proteins": {"B1": {"name": "unnamed (protein)", "chain": "MNPFEKGPDPTKTMLEASTGPFTYTTTTVSSTTASGYRQGTIYHPTNVTGPFAAVAVVPGYLASQSSINWWGPRLASHGFVVITIDTNSTSDQPPSRATQLMAALNQLKTFSNTSSHPIYRKVDPNRLGVMGWSMGGGGTLIAARDNPTLKAAIPFAPWNSSTNFSTVSVPTLIIACESDSTAPVNSHASPFYNSLPSTTKKAYLEMNNGSHSCANSGNSNAGLIGKYGVSWMKRFMDNDTRFSPYLCGAPHQADLSLTAIDEYRENCPY"}, "B2": {"name": "unnamed (protein)", "chain": "ANPYERGPNPTDALLEARSGPFSVSEENVSRLSASGFGGGTIYYPRENNTYGAVAISPGYTGTEASIAWLGERIASHGFVVITIDTITTLDQPDSRAEQLNAALNHMINRASSTVRSRIDSSRLAVMGHSMGGGGSLRLASQRPDLKAAIPLTPWHLNKNWSSVTVPTLIIGADLDTIAPVATHAKPFYNSLPSSISKAYLELDGATHVAPNIPNKIIGKYSVAWLKRFVDNDTRYTQFLCPGPRDGLFGEVEEYRSTCPFYPNSSSVDKLAAALE"}, "B3": {"name": "unnamed (protein)", "chain": "B2 chain with V209W"}, "B4": {"name": "unnamed (protein)", "chain": "B2 chain with V209L"}, "B5": {"name": "unnamed (protein)", "chain": "MTHQIVTTQYGKVKGTTENGVHKWKGIPYAKPPVGQWRFKAPEPPEVWEDVLDATAYGPICPQPSDLLSLSYTELPRQSEDCLYVNVFAPDTPSQNLPVMVWIHGGAFYLGAGSEPLYDGSKLAAQGEVIVVTLNYRLGPFGFLHLSSFNEAYSDNLGLLDQAAALKWVRENISAFGGDPDNVTVFGESAGGMSIAALLAMPAAKGLFQKAIMESGASRTMTKEQAASTSAAFLQVLGINEGQLDKLHTVSAEDSLKAADQLRIAEKENIFQLFFQPALDPKTLPEEPEKAIAEGAASGIPLLIGTTRDEGYLFFTPDSDVHSQETLDAALEYLLGKPLAEKAADLYPRSLESQIHMMTDLLFWRPAVAYASAQSHYAPVWMYRFDWHPKKPPYNKAFHALELPFVFGNLDGLERMAKAEITDEVKQLSHTIQSAWITFAKTGNPSTEAVNWPAYHEETRETLILDSEITIENDPESEKRQKLFPSKGE"}, "B6": {"name": "unnamed (protein)", "chain": "MNFPRASRLMQAAVLGGLMAVSAAATAQTNPYARGPNPTAASLEASAGPFTVRSFTVSRPSGYGAGTVYYPTNAGGTVGAIAIVPGYTARQSSIKWWGPRLASHGFVVITIDTNSTLDQPSSRSSQQMAALRQVASLNGTSSSPIYGKVDTARMGVMGWSMGGGGSLISAANNPSLKAAAPQAPWDSSTNFSSVTVPTLIFACENDSVAPVASSALPIYDSMSRNAKQFLEINGGSHYCANSGNSNQALIGKKGVAWMKRFMDNDTRYSTFACENPNSTRVSDFRTANCSLEHHHHHH"}, "B7": {"name": "unnamed (protein)", "chain": "B6 chain with Y238S"}, "B8": {"name": "unnamed (protein)", "chain": "B6 chain with V208I, A212N, Y238S"}, "B9": {"name": "unnamed (protein)", "chain": "B6 chain with A212N, Y238S"}, "B10": {"name": "unnamed (protein)", "chain": "QLGAIENGLESGSANACPDAILIFARGSTEPGNMGITVGPALANGLESHIRNIWIQGVGGPYDAALATNFLPRGTSQANIDEGKRLFALANQKCPNTPVVAGGYSQGAALIAAAVSELSGAVKEQVKGVALFGYTQNLQNRGGIPNYPRERTKVFCNVGDAVCTGTLIITPAHLSYTIEARGEAARFLRDRIRA"}}, "key": {"PET [1]": {"substrate": "PET", "assay": "Proxy for plastic degradation [Released monomer concentration (HPLC/LC-MS) (TPA+MHET)]", "conditions": "pH 9"}, "PET [2]": {"substrate": "PET", "assay": "Proxy for plastic degradation [Released monomer concentration (HPLC/LC-MS) (Total aromatic products)] (nmol/(min*cm²))", "conditions": "pH 9"}, "PET [3]": {"substrate": "PET", "assay": "Proxy for plastic degradation [Released monomer concentration (HPLC/LC-MS) (TA)]", "conditions": "pH 7"}, "PET [4]": {"substrate": "PET", "assay": "Proxy for plastic degradation [Released monomer concentration (HPLC/LC-MS) (BA)]", "conditions": "pH 7"}, "PET [5]": {"substrate": "PET", "assay": "Proxy for plastic degradation [Crystallinity (DSC)] (% crystallinity loss)", "conditions": "pH 9.4"}, "PET [6]": {"substrate": "PET", "assay": "Proxy for plastic degradation [Released monomer concentration (HPLC/LC-MS) (TPA+EG)]", "conditions": "pH 8, 70 °C, part of the chain shown"}}, "note": "Substitutions are numbered along the chain they refer to."}
{"protein": "B1", "values": [{"measurement": "Proxy for plastic degradation", "setting": "PET [1]; 30 °C", "result": 795, "unit": "µM"}, {"measurement": "Proxy for plastic degradation", "setting": "PET [1]; 40 °C", "result": 790, "unit": "µM"}]}
{"protein": "B2", "values": [{"measurement": "Proxy for plastic degradation", "setting": "PET [2]", "result": 6.5}]}
{"protein": "B3", "values": [{"measurement": "Proxy for plastic degradation", "setting": "PET [2]", "result": 3}]}
{"protein": "B4", "values": [{"measurement": "Proxy for plastic degradation", "setting": "PET [2]", "result": 0.5}]}
{"protein": "B5", "values": [{"measurement": "Proxy for plastic degradation", "setting": "PET [3]; 1 h", "result": 0, "unit": "µM"}, {"measurement": "Proxy for plastic degradation", "setting": "PET [3]; 2 h", "result": 100, "unit": "µM"}, {"measurement": "Proxy for plastic degradation", "setting": "PET [4]; 1 h", "result": 10, "unit": "mM"}, {"measurement": "Proxy for plastic degradation", "setting": "PET [4]; 2 h", "result": 1250, "unit": "mM"}]}
{"protein": "B6", "values": [{"measurement": "Proxy for plastic degradation", "setting": "PET [5]", "result": 3.2}]}
{"protein": "B7", "values": [{"measurement": "Proxy for plastic degradation", "setting": "PET [5]", "result": 2}]}
{"protein": "B8", "values": [{"measurement": "Proxy for plastic degradation", "setting": "PET [5]", "result": 1.5}]}
{"protein": "B9", "values": [{"measurement": "Proxy for plastic degradation", "setting": "PET [5]", "result": 0.6}]}
{"protein": "B10", "values": [{"measurement": "Proxy for plastic degradation", "setting": "PET [6]; 0 h", "result": 0, "unit": "%"}, {"measurement": "Proxy for plastic degradation", "setting": "PET [6]; 24 h", "result": 38, "unit": "%"}, {"measurement": "Proxy for plastic degradation", "setting": "PET [6]; 48 h", "result": 50, "unit": "%"}, {"measurement": "Proxy for plastic degradation", "setting": "PET [6]; 72 h", "result": 70, "unit": "%"}, {"measurement": "Proxy for plastic degradation", "setting": "PET [6]; 96 h", "result": 90, "unit": "%"}]}
